Test results as given in patent publication US20140308201A1 (Novartis, published 2014).

Legend:
FGFR2 D2 = biological target: T1, FGFR2 D2 (human); experiment: complex purified by size exclusion chromatography and crystallised
T1 construct: trypsin was added to the complex before crystallisation; also called FGFR D2; human FGFR2 ECD fragment (domain 2)
T1 chain: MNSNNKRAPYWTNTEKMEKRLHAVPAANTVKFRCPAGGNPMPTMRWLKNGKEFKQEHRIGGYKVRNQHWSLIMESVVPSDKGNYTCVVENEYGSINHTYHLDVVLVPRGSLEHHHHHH
Description: Peak fractions were analyzed by SDS-PAGE and LCMS.
Crystals were grown by sitting drop vapor diffusion. In detail, 0.1 μl of protein was mixed with 0.1 μl of reservoir solution which contains 0.1 M tri-sodium citrate dihydrate pH 5.0, 20% (w/v) PEG6000; and the drop was equilibrated against 45 μl of the same reservoir solution at 20° C.

[1] = biological target: T2, Cynomolgus monkey FGFR2 IIIb D1-3 (cynomolgus monkey); experiment: SPR Biacore, IgG captured via anti-human Fc, soluble FGFR as analyte
T2 construct: also called Cyno FGFR2 IIIb
T2 chain: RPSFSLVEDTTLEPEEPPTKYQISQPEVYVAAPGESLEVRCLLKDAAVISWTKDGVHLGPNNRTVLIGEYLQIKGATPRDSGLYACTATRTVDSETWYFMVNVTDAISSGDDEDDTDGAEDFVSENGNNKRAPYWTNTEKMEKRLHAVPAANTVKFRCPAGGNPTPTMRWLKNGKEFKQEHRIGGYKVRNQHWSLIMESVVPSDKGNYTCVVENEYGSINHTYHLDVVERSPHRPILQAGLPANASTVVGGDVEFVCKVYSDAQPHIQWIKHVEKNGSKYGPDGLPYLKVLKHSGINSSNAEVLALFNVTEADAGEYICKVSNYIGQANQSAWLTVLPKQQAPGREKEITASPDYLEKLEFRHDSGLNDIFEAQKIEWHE
Description: (§1) Affinity of the antibodies to FGFR2 species orthologues was determined using Biacore technology using a Biacore T100 instrument (GE Systems) and with CM5 sensor chips.
(§2) For kinetic measurements, experiments were performed in which the antibodies were immobilized to the sensor chip surface and the ability of the FGFR proteins described above listed in Table 1 to bind in free solution was determined Briefly, 50 μg/ml of anti-human Fc antibody at pH 4.75 was immobilized on a CM5 sensor chip through amine coupling at flow rate of 10 μl/minute on all four flow cells to reach 6000 RUs. […] Subsequently, 0.078-100 nM of FGFR receptors, diluted in a 2-fold series, were injected at a flow rate of 80 μl/min for 7 min over both reference and test flow cells. Dissociation of the binding was followed for 10 min using HBS-EP⁺ supplemented with 0.5 mg/ml of BSA and 10 μg/ml heparin as running buffer. After each injection cycle, the chip surface was regenerated with 10 mM glycine, pH 2.0 at 60 μl/min for 70 s.

Mouse FGFR2 IIIb D1-3 [2] = biological target: T3, Mouse FGFR2 IIIb D1-3 (mouse); experiment: as above
T3 construct: Extracellular domains with C-terminal tag
Description: as §1, §2

Human FGFR2 IIIb D1-3 [3] = biological target: T4, Human FGFR2 IIIb D1-3 (human); experiment: as above
T4 construct: Extracellular domains D1-3 with C-terminal tag, made in HEK293T; also called recombinant human FGFR2 IIIb; hFGFR2
T4 chain: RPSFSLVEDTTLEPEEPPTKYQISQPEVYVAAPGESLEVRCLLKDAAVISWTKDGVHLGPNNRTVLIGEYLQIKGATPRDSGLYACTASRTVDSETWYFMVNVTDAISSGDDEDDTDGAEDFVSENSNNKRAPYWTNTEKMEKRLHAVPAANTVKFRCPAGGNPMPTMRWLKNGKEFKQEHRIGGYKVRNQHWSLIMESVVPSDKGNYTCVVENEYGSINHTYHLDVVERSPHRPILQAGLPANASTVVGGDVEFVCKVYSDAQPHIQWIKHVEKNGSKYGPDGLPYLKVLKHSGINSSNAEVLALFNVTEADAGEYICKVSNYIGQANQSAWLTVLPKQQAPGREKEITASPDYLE
Description: as §1, §2

Rat FGFR2 IIIb D1-3 [4] = biological target: T5, Rat FGFR2 IIIb D1-3 (rat); experiment: as above
T5 construct: Extracellular domains with C-terminal tag
T5 sequence (P21803 other isoform, or with tags, fused parts or gaps): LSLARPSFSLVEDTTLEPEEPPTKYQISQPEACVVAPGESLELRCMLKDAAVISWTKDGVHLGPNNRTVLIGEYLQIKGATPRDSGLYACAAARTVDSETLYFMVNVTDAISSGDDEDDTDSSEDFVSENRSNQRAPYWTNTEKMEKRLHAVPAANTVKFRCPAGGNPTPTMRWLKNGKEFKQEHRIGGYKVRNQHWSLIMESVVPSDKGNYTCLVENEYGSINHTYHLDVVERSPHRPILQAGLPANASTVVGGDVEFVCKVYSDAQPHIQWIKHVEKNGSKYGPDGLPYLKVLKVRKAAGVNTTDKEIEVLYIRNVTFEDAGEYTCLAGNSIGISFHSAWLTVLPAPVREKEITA
Description: as §1, §2

FGFR2 D2-D3 Construct = biological target: T6, FGFR2 D2-D3 Construct (human); experiment: HDx-MS, antigen incubated 30 min with antibody
T6 construct: E. coli made, not glycosylated; also called E. Coli. derived FGFR2D2-D3 protein
T6 chain: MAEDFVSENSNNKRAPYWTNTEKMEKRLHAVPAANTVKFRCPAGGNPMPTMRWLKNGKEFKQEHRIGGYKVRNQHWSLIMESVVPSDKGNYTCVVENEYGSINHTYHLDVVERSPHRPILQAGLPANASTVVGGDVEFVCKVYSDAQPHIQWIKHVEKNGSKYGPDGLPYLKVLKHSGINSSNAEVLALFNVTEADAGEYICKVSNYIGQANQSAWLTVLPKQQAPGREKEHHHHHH
Description: The epitope mapping experiments described in this example were performed on a Waters HDx-MS platform, which includes a LEAP autosampler, nanoACQUITY UPLC System, and Synapt G2 mass spectrometer. The studies were automated by a LEAP autosampler operated by the LeapShell software, which performed initiation of the deuterium exchange reaction, reaction time control, quench reaction, injection onto the UPLC system and digestion time control. The Leap autosampler was equipped with two temperature controlled stacks maintained at 25° C. for HDx reaction and maintained at 2° C. for storage of protein and quench solution, respectively. Triplicate control experiments were carried out on antigen at a deuterium exchange time of 25 minutes. HDX was quenched with quenching buffer (6 M urea and 1 M TCEP pH=2.5). […] Triplicate experiments were carried out on antigen-mAb complex just as the control experiments except in these experiments the antigen in incubated for 30 min with the antibody at 25° C. prior to deuterium exchange.

Human FGFR2 IIIb D1-3 [5] = biological target: T4, Human FGFR2 IIIb D1-3; experiment: SPR Biacore, method as Example 2
Description: as §2

[6] = biological target: T2, Cynomolgus monkey FGFR2 IIIb D1-3; experiment: SPR Biacore, method as Example 2
Description: as §2

Mouse FGFR2 IIIb D1-3 [7] = biological target: T3, Mouse FGFR2 IIIb D1-3; experiment: SPR Biacore, method as Example 2
Description: as §2

Human FGFR2 IIIb D1-3 [8] = biological target: T4, Human FGFR2 IIIb D1-3; experiment: SPR Biacore, method as Example 2
Description: as §2

Rat FGFR2 IIIb D1-3 [9] = biological target: T5, Rat FGFR2 IIIb D1-3; experiment: SPR Biacore, method as Example 2
Description: as §2

B1: 12425 Fab (Fab, V domains shown)
VH: QVQLLESGGGLVQPGGSLRLSCAASGFTFSDYAMSWVRQAPGKGLEWVSVIEGDGSYTHYADSVKGRFTISRDNSKNTLYLQMNSLRAEDTAVYYCAREKTYSSAFDYWGQGTLVTVSS
VL: DIQMTQSPSSLSASVGDRVTITCRASQDISSDLNWYQQKPGKAPKLLIYDASNLQSGVPSRFSGSGSGTDFTLTISSLQPEDFAVYYCQQHYSPSHTFGQGTKVEIKR
- binding result (FGFR2 D2): binds

B2: mAb12433 (antibody, human IgG1, kappa, V domains shown)
VH: QVQLVQSGAEVKKPGESLKISCKGSGYSFTNYYIHWVRQMPGKGLEWMGAIYPDNSDTTYSPSFQGQVTISADKSISTAYLQWSSLKASDTAMYYCARGADIWGQGTLVTVSS
VL: DIQMTQSPSSLSASVGDRVTITCRASQDIDPYLSNWYQQKPGKAPKLLIYDASNLQSGVPSRFSGSGSGTDFTLTISSLQPEDFATYYCQQTTSHPYTFGQGTKVEIKR
notes: HuCAL human IgG1
- Kd [1]: 12 nM
- Kd (Mouse FGFR2 IIIb D1-3 [2]): 8 nM
- Kd (Human FGFR2 IIIb D1-3 [3]): 5.6 nM
- Kd (Rat FGFR2 IIIb D1-3 [4]): 12 nM
- binding result (FGFR2 D2-D3 Construct): binds
- Kd (Human FGFR2 IIIb D1-3 [5]): 5.6 nM
- Kd [6]: 1.7 nM
- Kd (Mouse FGFR2 IIIb D1-3 [7]): 2.2 nM
- Kd (Human FGFR2 IIIb D1-3 [8]): 5.6 nM
- Kd (Rat FGFR2 IIIb D1-3 [9]): 3.7 nM
